Source: patent publication US20020120098A1, “Enhanced stimulation of erythropoiesis” (priority 1996, published 2002)

Tests used:
[1] = Safety in animal experiments and Phase I clinical trial; format: in vivo; settings: series of animal experiments and Phase I clinical trial in humans
From the text: A preferred embodiment of the present invention is the therapeutic application of hemoglobin to the treatment of anemia. HEMOLINK™ is a hemoglobin based oxygen carrier intended for use as a red blood cell substitute at doses that may exceed. 100 g. […] The present invention specifically proposes the repetitive administration of HEMOLINK™ in small doses to patients with anemia of any type. The anemias most amenable to hemoglobin therapy include: (1) anemias due to insufficient Epo production, including chronic renal failure, malaria, AIDS, rheumatoid arthritis, anemia of cancer, sickle cell anemia, prematurity and late anemia associated with Rhesus hemolytic disease of the newborn; (2) anemias due to inadequate iron incorporation, including iron-deficient anemias and anemias associated with chronic disease (e.g. infection, inflammation, trauma, or neoplastic diseases); and (3) anemias due to bone marrow failure that may be idiopathic or drug-induced.

[2] = Half-life and blood level of Epo versus HEMOLINK after single i.v. administration; format: in vivo; settings: for HEMOLINK level: single i.v. 4 ml/kg
From the text: Another strategy for the co-administration of Epo and hemoglobin is to reduce the number of Epo administrations required during therapy. Several Epo therapies follow the regimen of three weekly injections, either intravenously or subcutaneously. Multiple low dose or single high dose injections of Epo are required due to its relatively short half-life in vivo. […] HEMOLINK™ has a longer half-life. […] Longer half-life of the cross-linked hemoglobin can therefore compensate for Epo which may decline at a much faster rate. Thus, hemoglobin co-administered with Epo could prolong the effectiveness of Epo and therefore this combination therapy can be used to reduce the required frequency of Epo administrations.

cord blood LDMNC = experiment: Erythroid differentiation of cord blood LDMNC in liquid culture; format: cell-based, human; settings: 20 days
Experimental: The ability of purified adult hemoglobin to stimulate erythroid progenitor differentiation has also been studied using a liquid culture system containing Epo. In this liquid culture system hemin is known to accelerate erythroid differentiation of progenitors obtained from normal adult peripheral blood, and to selectively increase fetal hemoglobin production in these cells. Primary low density mononuclear cells (LDMNC) isolated from cord blood were tested in this culture system. […] The addition of HAo (7.8-15.6 μM) to the cultures results in a further increase in glycophorin A/CD71 co-expression (80% vs. 53% in the Epo only control) and benzidine staining (82% vs. 43% in the Epo only control) after 20 days in culture.
The effect of HAo on erythroid differentiation was tested on cord blood LDMNC. […] 1.0 mg/ml HAo (15.6 μM) was added to Epo-stimulated cultures and the cultured cells were analyzed by flow cytometry (Epics Elite, Coulter) after 20 days for the co-expression of the red cell-specific marker, glycophorin A, and the transferrin receptor, CD71. […] Cultured cells were stained with anti-CD71 (abscissa) and anti-glycophorin A (ordinate) antibodies and the number of single- or double-stained cells (z-axis) analyzed. […] The percentage of glycophorin A^+/CD71^+ cells was determined from analysis of at least 6,500 cells per sample.

HEMOLINK™: chemically crosslinked hemoglobin prepared by treating human hemoglobin with a polyaldehyde (O-raffinose)
safety [1]: demonstrated to be safe
HEMOLINK level ([2]; 0 hours post administration): 4.7 mg/mL
half-life of the 64 kD fraction ([2]; 0.4 g HEMOLINK/kg body weight): ~7 h
half-life of the >64 kD fraction ([2]; 0.4 g HEMOLINK/kg body weight): ~21 h
HEMOLINK level ([2]; 21 hours post administration): 1.75 mg/mL
HEMOLINK level ([2]; 42 hours post administration): 0.81 mg/mL
HEMOLINK level ([2]; 63 hours post administration): 0.39 mg/mL
HEMOLINK level ([2]; 84 hours post administration): 0.19 mg/mL

HAo: adult human hemoglobin obtained from red blood cells and purified by displacement chromatography; uncross linked product
percentage of cells co-expressing glycophorin A and CD71 (cord blood LDMNC; HAo 1.0 mg/ml (15.6 μM; b99: 7.8-15.6 μM), Epo-stimulated, untreated 53%): 80%
benzidine staining (cord blood LDMNC; HAo 7.8-15.6 μM, 2 U/ml Epo, Epo only control 43%): 82%
